Experimental data reported in patent US20240262884A1 (University of Pennsylvania, published 2024).

T1: GFRα4 isoform a human Fc bivalent fusion protein (Asn24-Ser245, Factor Xa site, human IgG1 Fc fragment, … (human))
T1 construct: also called GFRα4a; GFRalpha4 isoform a
T1 chain: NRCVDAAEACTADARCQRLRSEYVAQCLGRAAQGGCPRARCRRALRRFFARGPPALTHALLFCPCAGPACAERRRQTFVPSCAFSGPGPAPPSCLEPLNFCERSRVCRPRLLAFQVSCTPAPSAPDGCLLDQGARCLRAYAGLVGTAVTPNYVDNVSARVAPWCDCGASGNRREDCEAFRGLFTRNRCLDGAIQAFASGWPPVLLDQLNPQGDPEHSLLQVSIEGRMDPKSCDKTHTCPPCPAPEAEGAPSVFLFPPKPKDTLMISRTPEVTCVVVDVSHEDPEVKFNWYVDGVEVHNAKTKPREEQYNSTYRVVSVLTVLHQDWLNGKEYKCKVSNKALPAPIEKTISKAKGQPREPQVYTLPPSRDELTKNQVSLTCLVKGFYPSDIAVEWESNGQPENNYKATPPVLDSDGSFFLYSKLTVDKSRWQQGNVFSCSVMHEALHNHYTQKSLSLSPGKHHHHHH

T2: human GFRα1 (R&D Systems, Fc-fusion protein) (human, UniProt P56159 25-429, limits assumed)
T2 construct: not shown: Fc part of the bought fusion protein
T2 sequence (looked up): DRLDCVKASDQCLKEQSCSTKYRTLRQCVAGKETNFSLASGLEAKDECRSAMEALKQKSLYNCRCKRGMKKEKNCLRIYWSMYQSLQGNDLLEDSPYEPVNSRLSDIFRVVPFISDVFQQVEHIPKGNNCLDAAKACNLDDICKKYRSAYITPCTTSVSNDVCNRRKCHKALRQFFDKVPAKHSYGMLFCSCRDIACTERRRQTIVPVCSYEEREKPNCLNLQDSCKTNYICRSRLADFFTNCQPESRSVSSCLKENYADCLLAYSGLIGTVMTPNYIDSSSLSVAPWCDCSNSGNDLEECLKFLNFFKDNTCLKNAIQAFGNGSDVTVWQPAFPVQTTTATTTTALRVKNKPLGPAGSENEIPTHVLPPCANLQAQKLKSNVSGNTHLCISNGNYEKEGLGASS

T3: human GFRα2 (R&D Systems, Fc-fusion protein) (human, UniProt O00451 22-441, limits assumed)
T3 construct: not shown: Fc part of the bought fusion protein
T3 sequence (looked up): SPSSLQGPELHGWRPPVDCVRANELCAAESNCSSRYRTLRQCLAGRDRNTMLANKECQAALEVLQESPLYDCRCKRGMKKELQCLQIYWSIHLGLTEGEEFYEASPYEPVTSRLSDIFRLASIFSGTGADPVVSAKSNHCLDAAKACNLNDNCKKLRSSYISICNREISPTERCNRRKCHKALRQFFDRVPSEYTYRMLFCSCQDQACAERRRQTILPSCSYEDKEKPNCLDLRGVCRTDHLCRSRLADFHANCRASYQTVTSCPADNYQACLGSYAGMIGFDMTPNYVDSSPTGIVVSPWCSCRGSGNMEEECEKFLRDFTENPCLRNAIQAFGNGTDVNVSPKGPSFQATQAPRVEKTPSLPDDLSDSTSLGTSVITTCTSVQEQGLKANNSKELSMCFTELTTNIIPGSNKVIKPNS

T4: human GFRα3 (R&D Systems, Fc-fusion protein) (human, UniProt O60609 32-382, limits assumed)
T4 construct: not shown: Fc part of the bought fusion protein
T4 sequence (looked up): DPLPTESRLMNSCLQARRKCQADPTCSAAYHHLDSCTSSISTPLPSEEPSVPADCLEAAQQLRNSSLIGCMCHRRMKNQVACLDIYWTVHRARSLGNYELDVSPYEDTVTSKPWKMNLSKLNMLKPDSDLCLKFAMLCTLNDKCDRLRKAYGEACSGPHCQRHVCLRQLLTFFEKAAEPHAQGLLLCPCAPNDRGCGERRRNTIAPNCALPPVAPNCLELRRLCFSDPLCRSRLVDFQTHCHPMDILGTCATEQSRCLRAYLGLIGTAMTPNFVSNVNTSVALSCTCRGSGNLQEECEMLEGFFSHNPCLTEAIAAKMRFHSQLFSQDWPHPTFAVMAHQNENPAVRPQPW


Experiments:
[1] = target: T5, GFRα4 isoform b human Fc bivalent fusion protein (Asn24-Val274, TEV site and linker, human IgG1 Fc fragment); … (human); assay: ELISA, soluble recombinant human/rabbit chimeric Fab, HRP-anti human Fab detection (FIG. 3)
T5 construct: also called GFRα4b; GFRalpha4 isoform b

[2] = target: T1, GFRα4 isoform a human Fc bivalent …; assay: as above
[3] = target: T2, human GFRα1 (R&D Systems, Fc-fusion …); assay: ELISA with soluble Fab, HRP-anti human Fab detection (FIG. 3)
[4] = target: T3, human GFRα2 (R&D Systems, Fc-fusion …); assay: as above
[5] = target: T4, human GFRα3 (R&D Systems, Fc-fusion …); assay: as above

Binder | binding result [1] | binding result [2] | binding result [3] | binding result [4] | binding result [5]
P4-10 recombinant human/rabbit chimeric Fab (Fab, V domains shown, Both formats are written under this one molecule; also called Fab P4-10; P4-10 phage antibody) VH: QSVKESEGGLFKPTDTLTLTCTVSGFSLSRHALTWVRQAPGNGLEWIGAIDNAGTTYYASWAKSRSTITRNTDLHTVTLKMTSLTASDTATYFCARVFYDINSGYYLDGMDLWGPGTLVTVSS VL: QFVLTQSPSVSAALGASAKLTCTLSSAHKTYTIDWYQQQQGEAPRYLMQVKSDGSYTKGTGVPDRFSGSSSGADRYLIIPSVQADDEAGYVCGADDNGGYVFGGGTQLTVT | binds | binds | no binding | no binding | no binding
P4-6 recombinant human/rabbit chimeric Fab (Fab, V domains shown, Both formats are written under this one molecule; also called Fab P4-6; P4-6 phage antibody) VH: EQLKESGGGLFKPTDTLTLTCTVSGFSLSYYGVNWVRQAPGNGLEWIGTIGGSGDTYYASWAKSRSTIIRNTNENTVTLKMTSLTAADTATYFCVRYANIGYEYFNVWGPGTLVTVSS VL: QFVLTQSPSASAALGASAKLTCTLSSAHKTYTIDWYQQQKGKAPRYLIQVKSDGTYTKATGVPDRFSGSSSGADRYLIIPSVQADDEADYYCGTDYTGGYVFGGGTQLTVT | binds | binds | no binding | no binding | no binding
